Test results: US12325756

Key:
[1] = molecular target: human mesothelin on tumor cells (C30-M, C30M/F, A1847) (human), Q13421; assay: cell-based or functional assay
[2] = molecular target: human alpha-folate receptor on tumor cells (C30-F, C30M/F, A1847) (human), P15328; assay: cell-based or functional assay
human alpha-folate receptor on tumor cells (C30-F, C30M/F, A1847) (human), P15328, sequence (P15328 25-234, stated change not applied): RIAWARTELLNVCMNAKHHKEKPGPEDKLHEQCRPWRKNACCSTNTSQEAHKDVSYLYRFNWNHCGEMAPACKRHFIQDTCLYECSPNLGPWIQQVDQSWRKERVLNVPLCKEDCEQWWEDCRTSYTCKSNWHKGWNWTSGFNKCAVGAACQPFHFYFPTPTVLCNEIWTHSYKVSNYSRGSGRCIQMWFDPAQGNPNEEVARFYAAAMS

human mesothelin on tumor cells (C30-M, C30M/F, A1847) (human), Q13421, sequence (Q13421 other isoform, or with tags, fused parts or gaps C30M C30M): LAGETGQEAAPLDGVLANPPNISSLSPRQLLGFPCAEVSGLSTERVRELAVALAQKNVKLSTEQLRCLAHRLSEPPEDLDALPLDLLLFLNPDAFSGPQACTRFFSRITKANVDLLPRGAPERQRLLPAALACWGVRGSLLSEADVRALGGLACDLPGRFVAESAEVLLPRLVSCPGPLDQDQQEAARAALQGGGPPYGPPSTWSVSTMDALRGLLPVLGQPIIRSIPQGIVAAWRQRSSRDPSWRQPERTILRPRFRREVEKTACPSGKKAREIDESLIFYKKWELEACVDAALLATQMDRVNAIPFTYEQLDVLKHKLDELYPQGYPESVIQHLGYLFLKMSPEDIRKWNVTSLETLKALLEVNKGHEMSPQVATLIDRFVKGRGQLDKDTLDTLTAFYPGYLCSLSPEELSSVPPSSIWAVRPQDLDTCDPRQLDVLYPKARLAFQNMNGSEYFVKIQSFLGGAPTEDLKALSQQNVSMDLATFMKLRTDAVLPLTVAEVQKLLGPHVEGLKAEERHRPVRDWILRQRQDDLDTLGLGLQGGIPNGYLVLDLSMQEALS

Row | apoptosis (annexin V / 7-AAD) after 3 days with A1847 [1] [%] | apoptosis (annexin V / 7-AAD) after 3 days with A1847 [2] [%] | Binder
1 | 34 |  | P4-z anti-mesothelin chimeric antigen receptor (P4 scFv - CD8a hinge and transmembrane region - CD3z) (protein) GSQVQLQQSGPGLVTPSQTLSLTCAISGDSVSSNSATWNWIRQSPSRGLEWLGRTYYRSKWYNDYAVSVKSRMSINPDTSKNQFSLQLNSVTPEDTAVYYCARGMMTYYYGMDVWGQGTTVTVSSGILGSGGGGSGGGGSGGGGSQPVLTQSSSLSASPGASASLTCTLRSGINVGPYRIYWYQQKPGSPPQYLLNYKSDSDKQQGSGVPSRFSGSKDASANAGVLLISGLRSEDEADYYCMIWHSSAAVFGGGTQLTVLSASTTTPAPRPPTPAPTIASRPLSLRPEACRPAAGGAVHTRGLDFACDIYIWAPLAGTCGVLLLSLVITLYCRVKFSRSADAPAYQQGQNQLYNELNLGRREEYDVLDKRRGRDPEMGGKPRRKNPQEGLYNELQKDKMAEAYSEIGMKGERRRGKGHDGLYQGLSTATKDTYDALHMQALPPR
2 |  | 0.5 to 1 | MOV19-28 (F-28) costimulatory-only anti-aFR chimeric antigen receptor (MOv-19 scFv - CD8a hinge - CD28 transmembrane - CD28 intracellular domain) (protein) GSSRAAQPAMAQVQLQQSGAELVKPGASVKISCKASGYSFTGYFMNWVKQSHGKSLEWIGRIHPYDGDTFYNQNFKDKATLTVDKSSNTAHMELLSLTSEDFAVYYCTRYDGSRAMDYWGQGTTVTVSSGGGGSGGGGSGGGGSDIELTQSPASLAVSLGQRAIISCKASQSVSFAGTSLMHWYHQKPGQQPKLLIYRASNLEAGVPTRFSGSGSKTDFTLNIHPVEEEDAATYYCQQSREYPYTFGGGTKLEIKRAAASTTTPAPRPPTPAPTIASQPLSLRPEACRPAAGGAVHTRGLDFACDFWVLVVVGGVLACYSLLVTVAFIIFWVRSKRSRLLHSDYMNMTPRRPGPTRKHYQPYAPPRDFAAYRS
